PMC6471057

Molecular target: HLA-E*01:01 on T2E cells (human | human (endogenous in T2))
Experiment: flow cytometry on cells; peptide stabilization on T2E cells (peptide 18 h at 37 °C), then 1 h with Brefeldin A 10 µg/mL, washed; HLA-E surface level (mAb 3D12) at 0, 2, 4 and 6 h at 37 °C; decrease taken as dissociation of the peptide from HLA-E

reduction in HLA-E surface expression after 6 h [%]	DT50 (incubation time for 50% of the p:HLA-E complexes to decay, with Brefeldin A) [h]	Binder
23	–	VMAPRTLIL [VIL9 peptide]
–	< 6	LVDSGAQVSVVHPNL [LNL15 peptide]
1.5	–	DVHDGKVVSTHEQ [DQ13 peptide]

Molecular target: HLA-E*01:01 on T2E cells (human | human (endogenous in T2))
Experiment: flow cytometry on cells; peptide stabilization on T2E cells (peptide 18 h at 37 °C), washed, without Brefeldin A; HLA-E surface level (mAb 3D12) at 0, 2, 4 and 6 h at 37 °C

Binder	DT50 (without Brefeldin A) [h]
LVDSGAQVSVVHPNL [LNL15 peptide]	> 6
DVHDGKVVSTHEQ [DQ13 peptide]	> 6
LGHPDTLNQGEFKEL [LEL15 peptide]	> 6

The next lines start with the values.

DT50 (without Brefeldin A) [h]	Binder
> 6	VMAPRTLIL [VIL9 peptide]
> 6	SKGKIYPVGY [SY10 peptide]

Molecular target: HLA-E*01:01 on T2E cells (human | human (endogenous in T2))
Experiment: flow cytometry on cells; peptide stabilization on T2E cells (peptide 18 h at 37 °C), then 1 h with Brefeldin A 10 µg/mL, washed; HLA-E surface level (mAb 3D12) at 0, 2, 4 and 6 h at 37 °C; decrease taken as dissociation of the peptide from HLA-E
Remark: another data set of the same source

Binder	DT50 (incubation time for 50% of the p:HLA-E complexes to decay, with Brefeldin A) [h]
LVDSGAQVSVVHPNL [LNL15 peptide]	> 4
DVHDGKVVSTHEQ [DQ13 peptide]	> 6
LGHPDTLNQGEFKEL [LEL15 peptide]	> 6

More lines, now with the values ahead:

DT50 (incubation time for 50% of the p:HLA-E complexes to decay, with Brefeldin A) [h]	Binder
> 6	VMAPRTLIL [VIL9 peptide]
> 6	SKGKIYPVGY [SY10 peptide]
